*1 amine or outer side, *2 acyl side, *3 side chain or, on linkers, in order; H or OH if unused. Where no end group is shown, it is not given here. Side-chain parts run from the residue outwards. [ ]: non-standard residue; d: D form. The star is where a group is joined. d(γGlu) = O=C(O)[C@@H](CCC(=O)[*:2])N[*:1]; C18 diacid = O=C(O)CCCCCCCCCCCCCCCCC(=O)*; C16 diacid = O=C(O)CCCCCCCCCCCCCCC(=O)*; γGlu = O=C(O)[C@H](CCC(=O)[*:2])N[*:1]; Glutaryl = O=C(CCCC(=O)[*:2])[*:1]; Nle = CCCC[C@H](N)C(=O)O; AEEA = NCCOCCOCC(=O)O; Aib = CC(C)(N)C(=O)O
B1: AT697 (peptide)
peptide: [γGlu]GTFISDYSIA[Nle]DKIK(C16 diacid)QQDFVEWLLAQKPSSGAPPPS-OH
modifications: N-terminus assumed
SMILES: CCCC[C@H](NC(=O)[C@H](C)NC(=O)[C@@H](NC(=O)[C@H](CO)NC(=O)[C@H](Cc1ccc(O)cc1)NC(=O)[C@H](CC(=O)O)NC(=O)[C@H](CO)NC(=O)[C@@H](NC(=O)[C@H](Cc1ccccc1)NC(=O)[C@@H](NC(=O)CNC(=O)CC[C@H](N)C(=O)O)[C@@H](C)O)[C@@H](C)CC)[C@@H](C)CC)C(=O)N[C@@H](CC(=O)O)C(=O)N[C@@H](CCCCN)C(=O)N[C@H](C(=O)N[C@@H](CCCCNC(=O)CCCCCCCCCCCCCCC(=O)O)C(=O)N[C@@H](CCC(N)=O)C(=O)N[C@@H](CCC(N)=O)C(=O)N[C@@H](CC(=O)O)C(=O)N[C@@H](Cc1ccccc1)C(=O)N[C@H](C(=O)N[C@@H](CCC(=O)O)C(=O)N[C@@H](Cc1c[nH]c2ccccc12)C(=O)N[C@@H](CC(C)C)C(=O)N[C@@H](CC(C)C)C(=O)N[C@@H](C)C(=O)N[C@@H](CCC(N)=O)C(=O)N[C@@H](CCCCN)C(=O)N1CCC[C@H]1C(=O)N[C@@H](CO)C(=O)N[C@@H](CO)C(=O)NCC(=O)N[C@@H](C)C(=O)N1CCC[C@H]1C(=O)N1CCC[C@H]1C(=O)N1CCC[C@H]1C(=O)N[C@@H](CO)C(=O)O)C(C)C)[C@@H](C)CC
B2: AT695 (peptide)
peptide: EGTFISEYSI[Aib]LEKIK([AEEA-AEEA-γGlu-C18 diacid])QQEFVEWLLAQKPSSGAPPPS-OH
modifications: N-terminus assumed
SMILES: CC[C@H](C)[C@H](NC(=O)[C@H](CCCCN)NC(=O)[C@H](CCC(=O)O)NC(=O)[C@H](CC(C)C)NC(=O)C(C)(C)NC(=O)[C@@H](NC(=O)[C@H](CO)NC(=O)[C@H](Cc1ccc(O)cc1)NC(=O)[C@H](CCC(=O)O)NC(=O)[C@H](CO)NC(=O)[C@@H](NC(=O)[C@H](Cc1ccccc1)NC(=O)[C@@H](NC(=O)CNC(=O)[C@@H](N)CCC(=O)O)[C@@H](C)O)[C@@H](C)CC)[C@@H](C)CC)C(=O)N[C@@H](CCCCNC(=O)COCCOCCNC(=O)COCCOCCNC(=O)CC[C@H](NC(=O)CCCCCCCCCCCCCCCCC(=O)O)C(=O)O)C(=O)N[C@@H](CCC(N)=O)C(=O)N[C@@H](CCC(N)=O)C(=O)N[C@@H](CCC(=O)O)C(=O)N[C@@H](Cc1ccccc1)C(=O)N[C@H](C(=O)N[C@@H](CCC(=O)O)C(=O)N[C@@H](Cc1c[nH]c2ccccc12)C(=O)N[C@@H](CC(C)C)C(=O)N[C@@H](CC(C)C)C(=O)N[C@@H](C)C(=O)N[C@@H](CCC(N)=O)C(=O)N[C@@H](CCCCN)C(=O)N1CCC[C@H]1C(=O)N[C@@H](CO)C(=O)N[C@@H](CO)C(=O)NCC(=O)N[C@@H](C)C(=O)N1CCC[C@H]1C(=O)N1CCC[C@H]1C(=O)N1CCC[C@H]1C(=O)N[C@@H](CO)C(=O)O)C(C)C
B3: AT696 (peptide)
peptide: EGTFISEYSI[Aib][Nle]EKIK([AEEA-AEEA-γGlu-C18 diacid])QQEFVEWLLAQKPSSGAPPPS-OH
modifications: N-terminus assumed
SMILES: CCCC[C@H](NC(=O)C(C)(C)NC(=O)[C@@H](NC(=O)[C@H](CO)NC(=O)[C@H](Cc1ccc(O)cc1)NC(=O)[C@H](CCC(=O)O)NC(=O)[C@H](CO)NC(=O)[C@@H](NC(=O)[C@H](Cc1ccccc1)NC(=O)[C@@H](NC(=O)CNC(=O)[C@@H](N)CCC(=O)O)[C@@H](C)O)[C@@H](C)CC)[C@@H](C)CC)C(=O)N[C@@H](CCC(=O)O)C(=O)N[C@@H](CCCCN)C(=O)N[C@H](C(=O)N[C@@H](CCCCNC(=O)COCCOCCNC(=O)COCCOCCNC(=O)CC[C@H](NC(=O)CCCCCCCCCCCCCCCCC(=O)O)C(=O)O)C(=O)N[C@@H](CCC(N)=O)C(=O)N[C@@H](CCC(N)=O)C(=O)N[C@@H](CCC(=O)O)C(=O)N[C@@H](Cc1ccccc1)C(=O)N[C@H](C(=O)N[C@@H](CCC(=O)O)C(=O)N[C@@H](Cc1c[nH]c2ccccc12)C(=O)N[C@@H](CC(C)C)C(=O)N[C@@H](CC(C)C)C(=O)N[C@@H](C)C(=O)N[C@@H](CCC(N)=O)C(=O)N[C@@H](CCCCN)C(=O)N1CCC[C@H]1C(=O)N[C@@H](CO)C(=O)N[C@@H](CO)C(=O)NCC(=O)N[C@@H](C)C(=O)N1CCC[C@H]1C(=O)N1CCC[C@H]1C(=O)N1CCC[C@H]1C(=O)N[C@@H](CO)C(=O)O)C(C)C)[C@@H](C)CC
B4: AT698 (peptide)
peptide: [d(γGlu)]GTFISDYSIA[Nle]DKIK(C16 diacid)QQDFVEWLLAQKPSSGAPPPS-OH
modifications: N-terminus assumed
SMILES: CCCC[C@H](NC(=O)[C@H](C)NC(=O)[C@@H](NC(=O)[C@H](CO)NC(=O)[C@H](Cc1ccc(O)cc1)NC(=O)[C@H](CC(=O)O)NC(=O)[C@H](CO)NC(=O)[C@@H](NC(=O)[C@H](Cc1ccccc1)NC(=O)[C@@H](NC(=O)CNC(=O)CC[C@@H](N)C(=O)O)[C@@H](C)O)[C@@H](C)CC)[C@@H](C)CC)C(=O)N[C@@H](CC(=O)O)C(=O)N[C@@H](CCCCN)C(=O)N[C@H](C(=O)N[C@@H](CCCCNC(=O)CCCCCCCCCCCCCCC(=O)O)C(=O)N[C@@H](CCC(N)=O)C(=O)N[C@@H](CCC(N)=O)C(=O)N[C@@H](CC(=O)O)C(=O)N[C@@H](Cc1ccccc1)C(=O)N[C@H](C(=O)N[C@@H](CCC(=O)O)C(=O)N[C@@H](Cc1c[nH]c2ccccc12)C(=O)N[C@@H](CC(C)C)C(=O)N[C@@H](CC(C)C)C(=O)N[C@@H](C)C(=O)N[C@@H](CCC(N)=O)C(=O)N[C@@H](CCCCN)C(=O)N1CCC[C@H]1C(=O)N[C@@H](CO)C(=O)N[C@@H](CO)C(=O)NCC(=O)N[C@@H](C)C(=O)N1CCC[C@H]1C(=O)N1CCC[C@H]1C(=O)N1CCC[C@H]1C(=O)N[C@@H](CO)C(=O)O)C(C)C)[C@@H](C)CC
B5: AT418 (peptide)
peptide: EGTFISDYSIAMDKIK([AEEA-AEEA-AEEA-γGlu-C18 diacid])QQDFVNWLLAQKGKKNDW-OH
modifications: N-terminus assumed
SMILES: CC[C@H](C)[C@H](NC(=O)[C@H](CO)NC(=O)[C@H](Cc1ccc(O)cc1)NC(=O)[C@H](CC(=O)O)NC(=O)[C@H](CO)NC(=O)[C@@H](NC(=O)[C@H](Cc1ccccc1)NC(=O)[C@@H](NC(=O)CNC(=O)[C@@H](N)CCC(=O)O)[C@@H](C)O)[C@@H](C)CC)C(=O)N[C@@H](C)C(=O)N[C@@H](CCSC)C(=O)N[C@@H](CC(=O)O)C(=O)N[C@@H](CCCCN)C(=O)N[C@H](C(=O)N[C@@H](CCCCNC(=O)COCCOCCNC(=O)COCCOCCNC(=O)COCCOCCNC(=O)CC[C@H](NC(=O)CCCCCCCCCCCCCCCCC(=O)O)C(=O)O)C(=O)N[C@@H](CCC(N)=O)C(=O)N[C@@H](CCC(N)=O)C(=O)N[C@@H](CC(=O)O)C(=O)N[C@@H](Cc1ccccc1)C(=O)N[C@H](C(=O)N[C@@H](CC(N)=O)C(=O)N[C@@H](Cc1c[nH]c2ccccc12)C(=O)N[C@@H](CC(C)C)C(=O)N[C@@H](CC(C)C)C(=O)N[C@@H](C)C(=O)N[C@@H](CCC(N)=O)C(=O)N[C@@H](CCCCN)C(=O)NCC(=O)N[C@@H](CCCCN)C(=O)N[C@@H](CCCCN)C(=O)N[C@@H](CC(N)=O)C(=O)N[C@@H](CC(=O)O)C(=O)N[C@@H](Cc1c[nH]c2ccccc12)C(=O)O)C(C)C)[C@@H](C)CC

molecular target: T1, human GIP receptor (human, UniProt P48546 22-466); assay: cell-based or functional assay
T1 sequence (looked up): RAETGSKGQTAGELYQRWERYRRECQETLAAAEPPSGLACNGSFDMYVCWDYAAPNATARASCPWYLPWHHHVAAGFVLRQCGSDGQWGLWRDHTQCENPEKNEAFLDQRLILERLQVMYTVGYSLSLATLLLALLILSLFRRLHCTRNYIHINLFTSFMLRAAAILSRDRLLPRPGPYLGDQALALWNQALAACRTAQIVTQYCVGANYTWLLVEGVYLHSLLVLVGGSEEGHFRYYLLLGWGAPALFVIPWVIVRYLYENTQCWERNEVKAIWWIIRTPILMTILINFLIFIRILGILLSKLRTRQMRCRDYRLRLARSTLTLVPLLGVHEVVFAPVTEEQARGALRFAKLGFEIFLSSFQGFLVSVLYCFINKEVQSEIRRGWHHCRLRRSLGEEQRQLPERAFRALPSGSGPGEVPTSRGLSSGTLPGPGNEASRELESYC

Row | Binder | cAMP agonism % Emax [%] | cAMP antagonism [nM] | cAMP antagonism % inhib [%] | cAMP antagonism pIC50
1 | B1 | 8 | 2.82 | 81 | 8.6
2 | EGTFISDYSIALDKIKQQDFVNWLLAQKPSSGAPPPS (βGlu at 3; Aib at 13; Nle at 14; K18: C16-diacid; C-term COOH) [AT703] | 0 | 4.3 | 93 | 8.6
3 | B2 | 0 | 0.794 | 98 | 9.1
4 | [βGlu]GTFISDYSIA[Nle]DKIK(C16 diacid)QQDFVEWLLAQKPSSGAPPPS-OH [AT699] | 0 | 6.31 | 88 | 8.2
5 | B3 | 0 | 0.584 | 97 | 9.2
6 | [βGlu]GTFISDYSIA[Nle]DKIK([AEEA-AEEA-γGlu-C18 diacid])QQDFVEWLLAQKPSSGAPPPS-OH [AT701] | 13 | 12.6 | 63 | 7.9
7 | B4 | 8 | 9.26 | 78 | 8
8 | Glutaryl-GTFISDYSIA[Nle]DKIK(C16 diacid)QQDFVEWLLAQKPSSGAPPPS-OH [AT700] | 3 | 0.708 | 89 | 9.2
9 | Glutaryl-GTFISDYSIA[Nle]DKIK([AEEA-AEEA-γGlu-C18 diacid])QQDFVEWLLAQKPSSGAPPPS-OH [AT702] | 0 | 3.55 | 85 | 8.5

molecular target: T1, human GIP receptor; assay: cell-based or functional assay; remark: another data set of the same source

Row | Binder | cAMP agonism Emax | cAMP antagonism [nM] | cAMP antagonism % inhib [%] | cAMP antagonism log [log M]
10 | B5 | 7.8 | 68 | 95 | -7.2

From patent US20220298218A1 (ANTAG THERAPEUTICS, published 2022)
